{"source": "paper PMC4372107", "origin": "cited, not measured here", "target": "U2AF65 RRM123 (Homo sapiens) (UniProt P26368)", "sequence (P26368 148-475, one chain of several)": "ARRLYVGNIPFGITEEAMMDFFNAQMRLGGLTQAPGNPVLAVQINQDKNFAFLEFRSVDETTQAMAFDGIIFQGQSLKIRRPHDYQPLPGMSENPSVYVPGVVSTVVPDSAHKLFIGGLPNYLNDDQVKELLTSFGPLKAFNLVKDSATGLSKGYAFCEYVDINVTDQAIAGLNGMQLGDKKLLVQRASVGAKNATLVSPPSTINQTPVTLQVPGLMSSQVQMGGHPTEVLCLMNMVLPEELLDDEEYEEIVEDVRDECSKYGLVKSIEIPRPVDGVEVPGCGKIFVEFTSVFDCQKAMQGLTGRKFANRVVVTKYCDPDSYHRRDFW", "experiment": "ITC", "note": "“And” between values parts separate entries of the source, which are not always exact repeats. Identical values can stand only once.", "data": [{"substance": "SF1 (from UniProt Q15637)", "values": [{"measurement": "Kd", "value": "114 nM and 96 nM"}]}]}
